From FireProtDB (doi:10.1006/abbi.1998.1072)
Where “and” joins values, the source holds several entries; their conditions need not be identical. Equal values may be shown once.

Conditions: pH 7, reversible: no, whole UniProt chain shown; for denaturant m value / denaturant midpoint (higher = more stable): GdnHCl, Tris-HCl 50 mM; for Tm: Thermal, HEPES 20 mM
[1] = Sulfolobus acidocaldarius (strain ATCC 33909 / DSM 639 / JCM 8929 / NBRC 15157 / NCIMB 11770), 25 °C, CD
[2] = Sulfolobus acidocaldarius (strain ATCC 33909 / DSM 639 / JCM 8929 / NBRC 15157 / NCIMB 11770), 25 °C, Fluorescence
[3] = Sulfolobus acidocaldarius (strain ATCC 33909 / DSM 639 / JCM 8929 / NBRC 15157 / NCIMB 11770), 50 °C, CD
[4] = Escherichia coli (strain K12), 25 °C, CD
[5] = Escherichia coli (strain K12), 25 °C, Fluorescence
[6] = Thermus thermophilus (strain ATCC 27634 / DSM 579 / HB8), 25 °C, CD
[7] = Thermus thermophilus (strain ATCC 27634 / DSM 579 / HB8), 25 °C, Fluorescence

B1: Inorganic pyrophosphatase wild type, P50308 (protein)
chain: MKLSPGKNAPDVVNVLVEIPQGSNIKYEYDDEEGVIKVDRVLYTSMNYPFNYGFIPGTLEEDGDPLDVLVITNYQLYPGSVIEVRPIGILYMKDEEGEDAKIVAVPKDKTDPSFSNIKDINDLPQATKNKIVHFFEHYKELEPGKYVKISGWGSATEAKNRIQLAIKRVSGGQ
denaturant m value [1]: 5.5 kcal/mol/M | denaturant midpoint (higher = more stable) [1]: 3.1 M | denaturant m value [2]: 8.13 kcal/mol/M and 6.93 kcal/mol/M and 5.98 kcal/mol/M | denaturant midpoint (higher = more stable) [2]: 3.2 M and 2.9 M and 3.1 M | denaturant m value [3]: 6.93 kcal/mol/M and 5.74 kcal/mol/M | denaturant midpoint (higher = more stable) [3]: 2.8 M and 2.9 M

B2: Inorganic pyrophosphatase wild type, P0A7A9 (protein)
chain: MSLLNVPAGKDLPEDIYVVIEIPANADPIKYEIDKESGALFVDRFMSTAMFYPCNYGYINHTLSLDGDPVDVLVPTPYPLQPGSVIRCRPVGVLKMTDEAGEDAKLVAVPHSKLSKEYDHIKDVNDLPELLKAQIAHFFEHYKDLEKGKWVKVEGWENAEAAKAEIVASFERAKNK
denaturant m value [4]: 3.35 kcal/mol/M | denaturant midpoint (higher = more stable) [4]: 4.9 M | denaturant m value [5]: 3.35 kcal/mol/M and 2.63 kcal/mol/M | denaturant midpoint (higher = more stable) [5]: 4.9 M and 4.5 M | Tm (Escherichia coli (strain K12), CD, EDTA 5 mM): 58 °C

B3: Inorganic pyrophosphatase wild type, P38576 (protein)
chain: MANLKSLPVGDKAPEVVHMVIEVPRGSGNKYEYDPDLGAIKLDRVLPGAQFYPGDYGFIPSTLAEDGDPLDGLVLSTYPLLPGVVVEVRVVGLLLMEDEKGGDAKVIGVVAEDQRLDHIQDIGDVPEGVKQEIQHFFETYKALEAKKGKWVKVTGWRDRKAALEEVRACIARYKG
denaturant m value [6]: 5.74 kcal/mol/M | denaturant midpoint (higher = more stable) [6]: 4.7 M | denaturant m value [7]: 5.74 kcal/mol/M | denaturant midpoint (higher = more stable) [7]: 5.1 M and 4.7 M | Tm (Thermus thermophilus (strain ATCC 27634 / DSM 579 / HB8), CD, EDTA 5 mM): 86 °C | Tm (Thermus thermophilus (strain ATCC 27634 / DSM 579 / HB8), CD): 96 °C
